Measurements as given in article PMC4657330, “Rac1 augments Wnt signaling by stimulating β-catenin–lymphoid enhancer factor-1 complex assembly independent of β-catenin nuclear import” (Journal of Cell Science, 2015).

Molecular target: T1, HA-tagged LEF-1 (UniProt Q9UJU2 1-399)
T1 construct: LEF-1 (lymphoid enhancer factor 1); written both HA-LEF-1 and LEF-1-HA; also called pHA-LEF-1; HA-LEF-1; source: HEK293, transfected, in lysate; NIH 3T3, transfected, in lysate and in fixed cells
Assay: co-IP; NIH 3T3 lysates, pLEF-1-HA co-transfected with pβ-catenin-myc constructs; IP with HA mAb or isotype control IgG, blot with anti-myc; densitometry over three independent experiments
Conditions: partners not purified

T1 sequence (Q9UJU2 whole entry): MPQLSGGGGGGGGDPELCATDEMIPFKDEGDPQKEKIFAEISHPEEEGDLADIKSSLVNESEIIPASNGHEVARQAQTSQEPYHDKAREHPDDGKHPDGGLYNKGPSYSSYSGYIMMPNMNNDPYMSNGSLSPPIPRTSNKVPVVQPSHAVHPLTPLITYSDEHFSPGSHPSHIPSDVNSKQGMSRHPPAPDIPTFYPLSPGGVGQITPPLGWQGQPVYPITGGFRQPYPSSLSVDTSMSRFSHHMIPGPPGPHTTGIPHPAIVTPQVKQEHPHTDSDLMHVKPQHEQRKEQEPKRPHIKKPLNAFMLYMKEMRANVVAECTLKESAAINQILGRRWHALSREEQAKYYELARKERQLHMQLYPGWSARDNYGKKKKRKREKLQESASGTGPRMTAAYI

Row | reduction in binding relative to β-catenin-WT (densitometry of the co-IP) | Binder
1 | ~20% | myc-tagged β-catenin S191A (natural protein, UniProt P35222 1-781, looked up, from the Long laboratory (Wu et al., 2008); also called pmyc-β-catenin-S191A; source: NIH 3T3, transfected, in lysate and in fixed cells) MATQADLMELDMAMEPDRKAAVSHWQQQSYLDSGIHSGATTTAPSLSGKGNPEEEDVDTSQVLYEWEQGFSQSFTQEQVADIDGQYAMTRAQRVRAAMFPETLDEGMQIPSTQFDAAHPTNVQRLAEPSQMLKHAVVNLINYQDDAELATRAIPELTKLLNDEDQVVVNKAAVMVHQLSKKEASRHAIMRAPQMVSAIVRTMQNTNDVETARCTAGTLHNLSHHREGLLAIFKSGGIPALVKMLGSPVDSVLFYAITTLHNLLLHQEGAKMAVRLAGGLQKMVALLNKTNVKFLAITTDCLQILAYGNQESKLIILASGGPQALVNIMRTYTYEKLLWTTSRVLKVLSVCSSNKPAIVEAGGMQALGLHLTDPSQRLVQNCLWTLRNLSDAATKQEGMEGLLGTLVQLLGSDDINVVTCAAGILSNLTCNNYKNKMMVCQVGGIEALVRTVLRAGDREDITEPAICALRHLTSRHQEAEMAQNAVRLHYGLPVVVKLLHPPSHWPLIKATVGLIRNLALCPANHAPLREQGAIPRLVQLLVRAHQDTQRRTSMGGTQQQFVEGVRMEEIVEGCTGALHILARDVHNRIVIRGLNTIPLFVQLLYSPIENIQRVAAGVLCELAQDKEAAEAIEAEGATAPLTELLHSRNEGVATYAAAVLFRMSEDKPQDYKKRLSVELTSSLFRTEPMAWNETADLGLDIGAQGEPLGYRQDDPSYRSFHSGGYGQDALGMDPMMEHEMGGHHPGADYPVDGLPDLGHAQDLMDGLPPGDSNQLAWFDTDL
2 | ~50% | myc-tagged β-catenin S605A (natural protein, UniProt P35222 1-781, looked up, from the Long laboratory (Wu et al., 2008); also called pmyc-β-catenin-S605A; source: NIH 3T3, transfected, in lysate and in fixed cells) MATQADLMELDMAMEPDRKAAVSHWQQQSYLDSGIHSGATTTAPSLSGKGNPEEEDVDTSQVLYEWEQGFSQSFTQEQVADIDGQYAMTRAQRVRAAMFPETLDEGMQIPSTQFDAAHPTNVQRLAEPSQMLKHAVVNLINYQDDAELATRAIPELTKLLNDEDQVVVNKAAVMVHQLSKKEASRHAIMRSPQMVSAIVRTMQNTNDVETARCTAGTLHNLSHHREGLLAIFKSGGIPALVKMLGSPVDSVLFYAITTLHNLLLHQEGAKMAVRLAGGLQKMVALLNKTNVKFLAITTDCLQILAYGNQESKLIILASGGPQALVNIMRTYTYEKLLWTTSRVLKVLSVCSSNKPAIVEAGGMQALGLHLTDPSQRLVQNCLWTLRNLSDAATKQEGMEGLLGTLVQLLGSDDINVVTCAAGILSNLTCNNYKNKMMVCQVGGIEALVRTVLRAGDREDITEPAICALRHLTSRHQEAEMAQNAVRLHYGLPVVVKLLHPPSHWPLIKATVGLIRNLALCPANHAPLREQGAIPRLVQLLVRAHQDTQRRTSMGGTQQQFVEGVRMEEIVEGCTGALHILARDVHNRIVIRGLNTIPLFVQLLYAPIENIQRVAAGVLCELAQDKEAAEAIEAEGATAPLTELLHSRNEGVATYAAAVLFRMSEDKPQDYKKRLSVELTSSLFRTEPMAWNETADLGLDIGAQGEPLGYRQDDPSYRSFHSGGYGQDALGMDPMMEHEMGGHHPGADYPVDGLPDLGHAQDLMDGLPPGDSNQLAWFDTDL
